Reference: patent US20240092909A1 (IBIO, published 2024)

How the values were obtained:
[1] = target: T1, Programmed cell death protein 1 (PD-1), human (human, UniProt Q15116 25-167, limits assumed); assay: SPR avidity, column 'Avidity (nM)' of the drawn table
T1 construct: also called full-length PD-1

[2] = target: T1, Programmed cell death protein 1 (PD-1), …; assay: SPR affinity, column 'Affinity (nM)' of the drawn table
[3] = target: T1, Programmed cell death protein 1 (PD-1), …; assay: SPR avidity measurement (mimic cell surface PD-1 clusters), response in nm, three traces
[4] = target: T1, Programmed cell death protein 1 (PD-1), …; assay: SPR affinity measurement, response in nm, four traces
[5] = target: T1, Programmed cell death protein 1 (PD-1), …; assay: cell-based or functional assay
[6] = target: T1, Programmed cell death protein 1 (PD-1), …; assay: SPR on PD-1, sensorgrams at three concentrations with fit
[7] = target: T1, Programmed cell death protein 1 (PD-1), …; assay: SPR on PD-1, sensorgrams at five concentrations with fit
[8] = target: T1, Programmed cell death protein 1 (PD-1), …; assay: SPR, PD-1 avidity (FIG. 2C); SPR avidity format, FIG. 2C
[9] = target: T1, Programmed cell death protein 1 (PD-1), …; assay: SPR, PD-1 binding (FIG. 2B); SPR affinity format, FIG. 2B

T1 sequence (Q15116 25-167 limits assumed): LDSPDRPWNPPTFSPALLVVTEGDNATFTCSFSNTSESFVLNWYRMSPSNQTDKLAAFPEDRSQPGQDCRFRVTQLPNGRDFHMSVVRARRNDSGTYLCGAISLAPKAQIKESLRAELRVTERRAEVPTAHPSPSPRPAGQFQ

B1: 1-C09-3 (antibody, V domains shown)
VH: QVQLQQPGAELVRPGTSVKLSCKASGYTFTSYWMHWVKERPGQGLEWIGVIDPSDSYTNYNQKFKDKATLTVDTSSSTAYMQLSSLTSEDSAVYYCARSPFDYWGQGTTLTVSS
VL: DIQMTQSQKFMSTSVGDRVSVTCKASQNVGTNVAWYQQKPGQSPKALIYSASYRYSGVPDRFIGSGSGTDFTLTIRNVQSEDLAEYFCQQHNSYPFTFGGGTKLEIK
notes: From the in vitro scFv library of immunised mice
- Kd [1]: 0.77 nM
- Kd [2]: 84 nM
- Kd [3]: 0.77 nM
- Kd [4]: 84 nM
- PD-1 agonism EC50, PathHunter Checkpoint Signaling Assay [5]: 1.1 nM

B2: 1-F12-1 (antibody, V domains shown)
VH: EVQLQQPGAELVRPGTSVKLSCKASGYTFTSYWMHWVKQRPGQGLEWIGVIDPSDSYTQYNQKFKGKATLTVDTSSSTAYMQLSSLTSEDSAVYYCARSPFDYWGQGTTVTVSS
VL: DIVMTQSHKFMSTSVGDRVSITCKASQDVSTAVAWYQQKPGQSPKALIYSASYRYSGVPDRFTGSGSGTDFTLTISNVQAEDLAVYYCHQHNTYPFTFGGGTKLEIK
notes: as for B1
- Kd [1]: 0.98 nM
- Kd [2]: 21 nM
- Kd [3]: 0.98 nM
- Kd [4]: 21 nM
- PD-1 agonism EC50, PathHunter Checkpoint Signaling Assay [5]: 1.6 nM

B3: 1-F09-1 (antibody, V domains shown)
VH: QVQLQQPGAEVVMPGASVKLSCKASGYTFTSYWMHWVKQRPGQGLEWIGVIDPSDSYTQYNQKFKGKATLTVDTSSSTAYMQLSSLTSEDSAVYYCARSPFDYWGQGTTLTVSS
VL: DIQMNQSHKFMSTSVGDRVSITCKASQDVSTAVAWYQQKPGQSPKALIYSASNRYSGVPDRFIGSGSGTDFTLTIRNVQSEDLAEYFCQQHNSYPFTFGGGTKLEMK
notes: as for B1
- Kd [1]: 0.46 nM
- Kd [2]: 13 nM
- Kd [3]: 0.46 nM
- Kd [4]: 13 nM
- PD-1 agonism EC50, PathHunter Checkpoint Signaling Assay [5]: 1.1 nM

B4: 1-C09-1 (antibody, V domains shown)
VH: QVQLQQPGTELVRPGTSVKMSCKASGYTFTSYWMHWVKQRPGQGLEWIGVIDPSDSYTQYNQKFKGKATLTVDTSSSTAYMQLSSLTSEDSAVYYCARSPFDYWGQGTTLTVSS
VL: DIVMTQSQKFMSTSVGDRVSVTCKASQNVGTNVAWYQQKPGQSPKALIYSASYRYSGIPDRFTGSGSGTDFTLTISNVQSEDLADFFCQQYNSYPFTFGGGTKLEIK
notes: as for B1
- Kd [1]: 3.7 nM
- Kd [2]: 150 nM
- Kd [3]: 3.7 nM
- Kd [4]: 150 nM
- PD-1 agonism EC50, PathHunter Checkpoint Signaling Assay [5]: 1.4 nM

B5: 2-D11-1 (antibody, V domains shown)
VH: EVQLQQPGAELVRPGTSVKLACKASGYTFNTYWMHWVNQRPGQGLEWIGVIDPSDSYTQYNQKFKGKATLTVDTSSSTAYMQLSSLTSEDSAVYYCARSPFDYWGQGTTLTVSS
VL: DVQMTQSQKFMSTSVGDRVSVTCKASQNVGTNVAWYQQKPGQSPKALIYSASYRYSGVPDRFIGSGSGTDFTLTISNVQSEDLAEYFCQQHNSYPFTFGGGTKLEIK
notes: as for B1
- Kd [1]: 0.96 nM
- Kd [2]: 15 nM
- Kd [3]: 0.96 nM
- Kd [4]: 15 nM
- PD-1 agonism EC50, PathHunter Checkpoint Signaling Assay [5]: 1.2 nM

B6: 1-H01-1 (antibody, V domains shown)
VH: QVQLQQPGAELVKPGASVKMSCKASGYTFTSYWMHWVKQRPGQGLEWIGVIDPSNSYTIYNQKFKGKATLTVDTSSSTAYMQLSSLTSEDSAVYYCARSPFDYWGQGTTLTVSS
VL: DVVMTQSQKFMSTSVGDRVSVTCKASQNVGTNVAWYQQKPGQSPKALIYSASYRYSGVPDRFTGSGSGTDFTLTIRNVQSEDLAEYFCQQHNSYPFTFGGGTKLEIK
notes: From the in vitro scFv library of immunised mice; also called clone 1-H01-1
- Kd [1]: 0.44 nM
- Kd [2]: 78 nM
- Kd [3]: 0.44 nM
- Kd [4]: 78 nM
- PD-1 agonism EC50, PathHunter Checkpoint Signaling Assay [5]: 0.9 nM

B7: 43 (antibody, V domains shown)
VH: EVQLLESGGGLVQPGGSLRLSCAASGFTFSIHPMTWVRQAPGKGLEWVSLISTGGGSTYYADSVKGRFTISRDNSKNTLYLQMNSLRAEDTAVYYCASASVLGSGGYWSPGMDYWGQGTLVTVSS
VL: DIQMTQSPSSLSASVGDRVTITCRASQSIDRFLNWYQQKPGKAPKLLIYGASNLPSGVPSRFSGSGSGTDFTLTISSLQPEDFATYYCQQSFSIPWTFGGGTKVEIK
notes: From phage panning of a naive antibody library; also called antibody 43; clone 43
- Kd [6]: 6.3 nM

B8: E2-B5-7_201 (antibody, V domains shown)
VH: EVQLVQSGAEVKKPGATVKISCKASGYSLSDHYMHWVQQAPGKGLEWMGRIDPHSGATKYDPKFQGRVTITADTSTDTAYMELSSLRSEDTAVYYCARSGPVYHYGSSYVMDYWGQGTTVTVSS
VL: DIVMTQSPDSLAVSLGERATINCKSGQSVFYSSNNKNYLAWYQQKPGQPPKLLIYWASTRESGVPDRFSGSGSGTDFTLTISSLQAEDVAVYYCQQYLYSWTFGQGTKLEIK
- Kd [7]: 1.2 nM

B9: D4-A7-7_201 (antibody, V domains shown)
VH: EVQLVQSGAEVKKPGATVKISCKASGYILTDHYMHWVQQAPGKGLEWMGRIDPHSGGIKYDPKFQGRVTITADTSTDTAYMELSSLRSEDTAVYYCARSGPVYHYGSSYVMDYWGQGTTVTVSS
VL: DIVMTQSPDSLAVSLGERATINCKSGQSVFYSSNNKNYLAWYQQKPGQPPKLLIYWASTRESGVPDRFSGSGSGTDFTLTISSLQAEDVAVYYCQQYLYSWTFGQGTKLEIK
notes: also called clone D4-A7-7_201
- Kd [7]: 1.1 nM

B10: E2-B5-7_211 (antibody, V domains shown)
VH: EVQLVQSGAEVKKPGATVKISCKASGYSLSDHYMHWVQQAPGKGLEWMGRIDPHSGATKYDPKFQGRVTITADTSTDTAYMELSSLRSEDTAVYYCARSGPVYHYGSSYVMDYWGQGTTVTVSS
VL: DIVMTQSPDSLAVSLGERATINCKSGQSVFYSSNNKNYLAWYQQKPGQPPKLLIYWADTRESGVPDRFSGSGSGTDFTLTISSLQAEDVAVYYCQQYLYSWTFGQGTKLEIK
- Kd [7]: 0.695 nM

B11: E2-B5-6_201 (antibody, V domains shown)
VH: EVQLVQSGAEVKKPGATVKISCKASGYSLSDHYMHWVQQAPGKGLEWMGRIDPHSGATKYDPKFQGRVTITADTSTDTAYMELSSLRSEDTAVYYCARSGPVHYYGSSYVMDYWGQGTTVTVSS
VL: DIVMTQSPDSLAVSLGERATINCKSGQSVFYSSNNKNYLAWYQQKPGQPPKLLIYWASTRESGVPDRFSGSGSGTDFTLTISSLQAEDVAVYYCQQYLYSWTFGQGTKLEIK
- Kd [7]: 0.71 nM

B12: 27A5 (antibody, V domains shown)
VH: QVTLKESGPGILQPSQTLSLTCSFSGFSLSTFGMGVGWIRQPSGKGLEWLAHIWWDADKYSTPALKSRLTISKDTSKNQVFLKIANVDTADTATYYCARIGRNYYFDYWGQGTTLTVSS
VL: DIVMTQSPSSLAVSVGEKVTLTCKSSQTLLDSTNQKNYLAWYQQIPGQSPKLLIYWASTRESGVPDRFTGSGSGTDFTLTISSVKAEDLTVYYCQQYYTYPLTFGAGTKLELK
notes: Antibody from a monoclonal hybridoma of immunised BALB/c mice
- Kd [8]: 0.005 nM
- Kd [9]: 55 nM

B13: 7 (antibody, V domains shown)
VH: EVQLLESGGGLVQPGGSLRLSCAASGFPFGNYLMNWVRQAPGKGLEWVSVISGGGVSTYYADSVKGRFTISRDNSKNTLYLQMNSLRAEDTAVYYCARGPSSWPAFDVWGQGTLVTVSS
VL: DIQMTQSPSSLSASVGDRVTITCRASETISNFLNWYQQKPGKAPKLLIYTTSSLQRGVPSRFSGSGSGTDFTLTISSLQPEDFATYYCQQSYSVPWTFGGGTKVEIK
notes: From phage panning of a naive antibody library; also called antibody 7; clone 7
- Kd [6]: 16 nM
